Test results taken from patent US20230212319A1, “NOVEL ANTIGEN BINDING DOMAINS AND SYNTHETIC ANTIGEN RECEPTORS INCORPORATING THE SAME” (University of Southern California, priority 2020, published 2023).

Tests used:
Type in all cases: cell-based
LNCaP cells = assay: JNG assay, co-culture with LNCaP cells; settings: for NFAT-GFP ASSAY: LNCaP: co-culture with LNCaP
Description: Cellular supernatant is collected and assayed for the induction of cytokines (e.g., IL2).
JNG (Jurkat cells expressing EGFP under an NFAT promoter) were infected with lentiviral vectors encoding different single chain and multi-chain SARs by spinfection in the presence of 8 µg/ml of Polybrene® (Sigma, Catalog no. H9268). The Jurkat-NFAT-GFP cells are engineered in such a way that the IL-2 promoter, which carries NFAT binding sites, is cloned upstream of the GFP gene. These cells have been used to study signaling via TCR and CAR. The different SARs were stably expressed in Jurkat NFAT-GFP cells by lentiviral mediated gene transfer, followed by selection with puromycin or blasticidin. No drug selection was used in case the construct lacked an antibiotic resistance gene. The SAR-expressing Jurkat-NFAT-GFP cells were cocultured with the target cells at E:T ratio of approximately 1:2 for approximately 4 hours to 18 hours. When the interaction between SIRs and their target antigen results in activation of the NFAT pathway, GFP expression is induced. […] GFP expression was monitored by FACS analysis. The Jurkat-NFAT-GFP (parental) cells were used as control. The structure of different constructs can be determined based on their names. For example, the construct CD8SP-CD19-hu-mROO5-1-vL-[hTCRa-C SDVP]-F-F2A-Spe-IgHSP-Apa-CD20-vHH-2HCD25-G4S-CDl9-hu-mROO5-1-vH-Mlu-[hTCRb-KACIAH]-F-P2A-PAC has the following modules from 5′ to 3′ direction: a CD8 signal peptide (CD8SP), the CD19 targeting hu-mROO5-1 vL fragment (CD19-hu-mROO5-1), Xho1 cloning site, human TCRa constant chain containing CSDVP mutations (hTCRa-CSDVP), Furine cleavage site (F), F2A ribosomal skip sequence (F2A), SpeI site, human IgH signal peptide (IgHSP), Apa I restriction enzyme site, camelid CD20-2HCD25-VHH module targeting CD20, BamHI restriction enzyme site, Glycinex4-serine linker (G4S), BstI restriction enzyme site, CD19-hu-mROO5-1-vH fragment targeting CD19, Mlu I restriction enzyme site, human TCRb constant chain containing KACIAH mutations ([hTCRb-KACIAH]), Furine cleavage site (F), P2A ribosomal skip sequence and Puromycin resistance gene (PAC). The sequence of the other constructs in the table can be similarly determined from their names and by referring to the different Tables of this disclosure that provide the names and SEQ ID NO of the different modules. Alternatively, the composition and modular architecture of the different SAR constructs can be determined from their sequences by bioinformatics tools, including using nucleic acid and amino acids homology searches. A SAR is considered positive in the assay in case the SAR expressing Jurkat-NFAT-GFP cells show greater % GFP positive cells when cultured with the target cell line as compared to parental Jurkat-NFAT-GFP cells. The signs +/-, +, 2+ etc. after the name of the cell lines indicate the relative degree of positivity on the Jurkat-NFAT-GFP assay as measured by the % GFP positive cells after culture of the SAR expressing Jurkat-NFAT-GFP cells with that cell line above the % GFP cells observed in parental Jurkat NFAT-GFP cells serving as controls. In general, the number +/-, +, 2+, 3+, 4+, 5+ refer to approximately 5%, 10%, 20%, 30%, 40% and 50% GFP positive cells. The % of GFP induction in the above assay is dependent not only the relative strength of the SAR but also, among other factors, on the relative level of expression of the SAR in the JNG cells and the relative level of expression of the target antigen in the target cell line. To control for the difference in gene transduction efficiency of the different SAR constructs, the experiment was conducted with JNG cells transduced with SAR constructs co-expressing a drug resistance gene (e.g., puromycin or PAC) followed by drug selection to generate a stable population of SAR-expressing cells. […]

L363 cells = assay: JNG assay, co-culture with L363 cells; settings: co-culture with L363
Outline: (§1)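 Jurkat NFAT-GFP (JNG) cells stably transduced with SARs by lentivirus, with drug selection where the construct carried a resistance gene, then co-cultured with target cells at E:T ~1:2 for ~4–18 h. % GFP-positive cells measured by FACS against parental JNG; +/- to 5+ correspond to ~5–50% GFP-positive.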

RAJI cells = assay: JNG assay, co-culture with RAJI cells; settings: JNG cells expressing construct, co-culture with Raji
Outline: as §1

RAJI-CD19-KO cells = assay: JNG assay, co-culture with RAJI-CD19-KO cells; settings: co-culture with Raji-CD19-KO
Outline: as §1

RS;411 = assay: JNG assay, co-culture with RS;411 cells; settings: co-culture with RS411
Outline: as §1

Nalm6 cells = assay: JNG assay, co-culture with Nalm6 cells; settings: co-culture with Nalm6
Outline: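 Scoring uses % GFP+ reporter cells above the parental control, where +/-, +, 2+, 3+, 4+ and 5+ correspond to about 5, 10, 20, 30, 40 and 50%. Effectors were SAR-expressing Jurkat NFAT-GFP cells cocultured with targets (E:T ~1:2, ~4–18 h).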

B1: 22042 (protein)
chain: MALPVTALLLPLALLLHAARPQLQLQESGPGLVKPSETLSLTCTVSGDSISSGDYYWGWIRQPPGKGLEWIGHIYYSGVTYYNPSLKSRVTISVDTSRNQFSLKLSSVTAADTAVYYCTREDSSNWRSRGQGTLVTVSSLEGSADCGFTSESYQQGVLSATILYEILLGKATLYAVLVSALVLMAMVKRKDSRGRAKRSGSGATNFSLLKQAGDVEENPGPTSMDWIWRILFLVGAATGAHSFEVQLVESGGGVVQPGRSLRLSCAASGFSFSGYGMHWVRQAPGKGLEWVAYISYDGSNKYYADSVKGRFTISRDNSKNTLYLQMNSLRAEDTAVYYCAKDPAWGLRLGESSSYDFDIWGQGTMVTVSSTRDKTHTCPPCPAIPEDTFFPSPESSCDVKLVEKSFETDTNLNFQNLSVIGFRILLLKVAGFNLLMTLRLWSSRAKRSGSGVKQTLNFDLLKLAGDVESNPGPSRGHMTEYKPTVRLATRDDVPRAVRTLAAAFADYPATRHTVDPDRHIERVTELQELFLTRVGLDIGKVWVADDGAAVAVWTTPESVEAGAVFAEIGPRMAELSGSRLAAQQQMEGLLAPHRPKEPAWFLATVGVSPDHQGKGLGSAVVLPGVEAAERAGVPAFLETSAPRNLPFYERLGFTVTADVEVPEGPRTWCMTRKPGA
For B1, the “NFAT-GFP ASSAY: LNCaP” value (LNCaP cells) was “+/- (refer to approximately 5%, 10%, 20%, 30%, 40% and 50% GFP positive cells)”.

B2: SEQ ID NO: 22289: NKG2D-YA fused directly to TCRb constant chain without an Ig linker (protein)
chain: MALPVTALLLPLALLLHAARPACLFNQEVQIPLTESYCGPCPKNWICYKNNCYQFFDESKNWYESQASCMSQNASLLKVYSKEDQDLLKLVKSAHWMGLVHIPTNGSWQWEDGSILSPNLLTIIEMQKGDCALYASSFKGYIENCSTPNTYICMQRTVLEDLKNVFPPEVAVFEPSEAEISHTQKATLVCLATGFYPDHVELSWWVNGKEVHSGVCTDPQPLKEQPALNDSRYCLSSRLRVSATFWQNPRNHFRCQVQFYGLSENDEWTQDRAKPVTQIVSAEAWGRADCGFTSESYQQGVLSATILYEILLGKATLYAVLVSALVLMAMVKRKDSRGRAKRSGSGATNFSLLKQAGDVEENPGPTSMDWIWRILFLVGAATGAHSFEDLFNQEVQIPLTESYCGPCPKNWICYKNNCYQFFDESKNWYESQASCMSQNASLLKVYSKEDQDLLKLVKSAHWMGLVHIPTNGSWQWEDGSILSPNLLTIIEMQKGDCALYASSFKGFIENCSTPNTYICMQRTVTRIQNPDPAVYQLRDSKSSDKSVCLFTDFDSQTNVSQSKDSDVYITDKCVLDMRSMDFKSNSAVAWSNKSDFACANAFNNSIIPEDTFFPSPESSCDVKLVEKSFETDTNLNFQNLSVIGFRILLLKVAGFNLLMTLRLWSSRAKRSGSGVKQTLNFDLLKLAGDVESNPGPSRGHMTEYKPTVRLATRDDVPRAVRTLAAAFADYPATRHTVDPDRHIERVTELQELFLTRVGLDIGKVWVADDGAAVAVWTTPESVEAGAVFAEIGPRMAELSGSRLAAQQQMEGLLAPHRPKEPAWFLATVGVSPDHQGKGLGSAVVLPGVEAAERAGVPAFLETSAPRNLPFYERLGFTVTADVEVPEGPRTWCMTRKPGA
With B2 the GFP induction (LNCaP cells; LNCaP cells, only in the presence of SAR-adaptor PSMA-USC76-chVH-G4S-ULBP2-S3 (SEQ ID NO: 23114)) was “failed to show GFP induction”.

B3: 22044 (protein)
chain: MALPVTALLLPLALLLHAARPQLQLQESGPGLVKPSETLSLTCTVSGDSISSGDYYWGWIRQPPGKGLEWIGHIYYSGVTYYNPSLKSRVTISVDTSRNQFSLKLSSVTAADTAVYYCTREDSSNWRSRGQGTLVTVSSLEGSMDPKDNCSKDANDTLLLQLTNTSAYYMYLLLLLKSVVYFAIITCCLLRRTAFCCNGEKSRAKRSGSGATNFSLLKQAGDVEENPGPTSMDWIWRILFLVGAATGAHSFEVQLVESGGGVVQPGRSLRLSCAASGFSFSGYGMHWVRQAPGKGLEWVAYISYDGSNKYYADSVKGRFTISRDNSKNTLYLQMNSLRAEDTAVYYCAKDPAWGLRLGESSSYDFDIWGQGTMVTVSSTRDKTHTCPPCPAIPEDTFFPSPESSCDVKLVEKSFETDTNLNFQNLSVIGFRILLLKVAGFNLLMTLRLWSSRAKRSGSGVKQTLNFDLLKLAGDVESNPGPSRGHMTEYKPTVRLATRDDVPRAVRTLAAAFADYPATRHTVDPDRHIERVTELQELFLTRVGLDIGKVWVADDGAAVAVWTTPESVEAGAVFAEIGPRMAELSGSRLAAQQQMEGLLAPHRPKEPAWFLATVGVSPDHQGKGLGSAVVLPGVEAAERAGVPAFLETSAPRNLPFYERLGFTVTADVEVPEGPRTWCMTRKPGA
In the case of B3, the “NFAT-GFP ASSAY: LNCaP” value (LNCaP cells) is reported as “+/- (refer to approximately 5%, 10%, 20%, 30%, 40% and 50% GFP positive cells)”.

B4: 22140 (protein)
chain: MALPVTALLLPLALLLHAARPACEVQLLESGGGLIQPGGSLRLSCAASGFTFSSHAMTWVRQAPGKGLEWVSAISGSGDYTHYADSVKGRFTISRDNSKNTVYLQMNSLRAEDSAVYYCAKDEDGGSLLGHRGQGTLVTVSSGTGGGGSGGGGSGGGGSEFDIQMTQSPSSLSASVGDRVTITCKASDHINNWLAWYQQKPGQAPKLLIYGATTLETGVPSRFSGSGSGTDYTLTISSLQPEDFATYYCQQSWNTPWTFGQGTKLEIKRLEGQPKANPTVTLFPPSSEELQANKATLVCLISDFYPGAVTVAWKADGSPVKAGVETTKPSKQSNNKYAASSYLSLTPEQWKSHRSYSCQVTHEGSTVEKTVAPTECSGRADCGFTSESYQQGVLSATILYEILLGKATLYAVLVSALVLMAMVKRKDSRGRAKRSGSGATNFSLLKQAGDVEENPGPTSATMDWIWRILFLVGAATGAHSGPQVQLQESGGGLAQAGGSLRLSCAASGRTFSMGWFRQAPGKEREFVAAITYSGGSPYYASSVRGRFTISRDNAKNTVYLQMNSLKPEDTAVYYCAANPTYGSDWNAENWGQGTQVTVSSGSGGGGSGGGGSGGGGSFEQVQLQQPGAELVKPGASVKMSCKASGYAFSSYWINWMKQKPGQGLEWIGQIYPGDGDTNYNGKFKGRATLTADTSSSTAYMQLSSLTSEDSAVYFCARSITTVVGCAMDYWGQGTSVTVSSTRASTKGPSVFPLAPSSKSTSGGTAALGCLVKDYFPEPVTVSWNSGALTSGVHTFPAVLQSSGLYSLSSVVTVPSSSLGTQTYICNVNHKPSNTKVDKRVEPKSCIPEDTFFPSPESSCDVKLVEKSFETDTNLNFQNLSVIGFRILLLKVAGFNLLMTLRLWSSRAKRSGSGVKQTLNFDLLKLAGDVESNPGPSRGHMTEYKPTVRLATRDDVPRAVRTLAAAFADYPATRHTVDPDRHIERVTELQELFLTRVGLDIGKVWVADDGAAVAVWTTPESVEAGAVFAEIGPRMAELSGSRLAAQQQMEGLLAPHRPKEPAWFLATVGVSPDHQGKGLGSAVVLPGVEAAERAGVPAFLETSAPRNLPFYERLGFTVTADVEVPEGPRTWCMTRKPGA
For B4, the “NFAT-GFP ASSAY: L363” value (L363 cells) was 2+ (refer to approximately 5%, 10%, 20%, 30%, 40% and 50% GFP positive cells), the “NFAT-GFP ASSAY: Raji” value (RAJI cells) was 5+ (refer to approximately 5%, 10%, 20%, 30%, 40% and 50% GFP positive cells) and the “NFAT-GFP ASSAY: Raji-CD19-KO” value (RAJI-CD19-KO cells) was 4+ (refer to approximately 5%, 10%, 20%, 30%, 40% and 50% GFP positive cells). For the same molecule, the “NFAT-GFP ASSAY: RS411” value (RS;411) was 4+ (refer to approximately 5%, 10%, 20%, 30%, 40% and 50% GFP positive cells) and the “NFAT-GFP ASSAY: Nalm6” value (Nalm6 cells) was 5+ (refer to approximately 5%, 10%, 20%, 30%, 40% and 50% GFP positive cells).
